Experimental data published in a protein production outcome set (Wang et al. 2014).

Test: label from the status in PepcDB records
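Note: failed if final PepcDB status was selected cloned or expressed and not failed if soluble or beyond.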

Sequence	protein production
MRRRDARPQGTGTAGPTGARHGEDADGTPRHMNAPKGLPLWLKIVTGVVSVALVAGVAFAAFWFIRLQTNITKAPLSAGETRNAGDPLVDDKTDRLQILILGSDTRDGKNAEYGSTEDSTGYGHSDVMMLLDISADNKRVNVLSFPRDLLVDVPQCTDRTNNQTFPARSGVMINEAMAEAGIGCAVDTVNQLTGLEIDHFMMADFNAVKELSHAVGGVNVCVSDPVFDPDSRLRLAKGDSLVEGEQALAFLRTRHAFGDGGDLGRIKGQQAFLSSLTRKLKDEGTLGNPQRLLQIADVVTQNLTVDEGLASVPSLLTIGGRLKDIDVSKVAFVAVPTQAAAADINRLELIEPQASQLFAALRADLDLTTPGATAPPAPSESPAPQPTATTPPAPAYDKAIQPVAVANGSGVATRAQELMTVLTGNGFAQTVSYLANPVDQTVLYYGPGFADVAADVATLFGIPAAQVQEAPGVAGVQLYVGTDFSSGTAYGAASVPSDVVNQTANDAVCQQVNPLYIDQQ	failed
MKKTLVIVVHPDLTKSVINKAWAKAIEGAATIHHLYEQYPNGQIDLAHEQALLEAHDRIVFQFPLYWYAAPYLLKKWMDEVFTEGWAYGAGGDKMEGKEICAAVSCGSPKSAFAEGAQQCHTLRSYLNVFDGIAAFLRARFTGYHACYDSYNPRLPEMLPANCEAYLRFIKGE	failed
MSSRSHARPEAVTRIASLAECGETVACMACARYPSCLAHLRLRMKRHFSMLRDFQLADWFTLANAFCGTGAVFAAMRFLQEEHRGDLLLGMALIPLAFVFDALDGHVARWRKASSTLGRELDSLADVISFGVAPAALGYACGMRGGWDWLVLSYFVCCGVSRLARYNVTAEEIAGEADKVPYFEGTPIPTSLLLVILLAVAASIGHIGETLWWGQWQLGPWQFHPLVLLFAVSGSLMISKTLRIPKL	failed
WYENYRWFFTSEGFLVIGGRTAEMNEEIVAKHLESLDLFFHTQTPGAPAVILKRGQEAGEESIREAAEFAATYSALWKEGKHAGEVYYVLPEQVSKSAKAGEYLPK	failed
MLDLNEFLTRKMKIDVLLKEHGWDVGDRSKVVLEVDTIQSDIKKQDYRQVNETRRNDAESKYADYLLLDSTGKPLAIIEAKRTTKDPILGQKQAEEYADDIKTQTGEEVFIFLSNGYQIWLWDRERYGPRQIKGFYSPEDLERLLYQRKYSERETEIDIDGNIVDRAKSVEVATRVVEHIHKGHRKALIVMATGTGKTRVAMAIIDQLMRESRVQRVLFLTDRKALRKQAYEKGYLRYFPEETKEIIHSGNYNSNCRLYVSTIQTFQEIYNQKDRNGKYRISPGAFDLIFSDEAHRSIYSKWKGIFTYLDAIQIGLTATPADMVDRDTFRFFECHDDIPTALYSYEDAVRDGVLCDFRKNISGARTYFQIEGLKPENLTEGEREELIKKGIDPDDINFEGTELEKKVAVKGTSEAIVREFMENCLTDQAGTLPAKTIFFAISKLHAKRLWEAFEKLYPEHKGKLARIIVSEDSRAQQLIKDFEEKPFPRIAISVDMMDTGIDVPEVCNLVFAKPVFSKIKFWQMLGRGTRADGACEHREWLPDGKKEYFKVFDFWNNFEYWNMNPEGAKNESAEAITNRIFLTRLKQLGELMQRRDPASEKAAEKVKAKIISDIESLPRDSVNVREHLQDMEKALSPKLWDNIAIDPVEFLQKKIMPLMKFKPDVNLKEATFTLRCEKLAYALLENDKAEIDRLKTSIAEMVDRLPRTLDSVRAREALMDNVLSRSFWETVSFEDVQLLLSDLAPLMPYMAKEPRETIVIDMSDIIAERKKWEISDGNDPSYVEAYRREVEARIKALAETHPAVRKIKNNEPLTDYDLEQLEETLLNADLTPDNPKLSSHASLSDLYPSRQASLVDFIRQVLGLYSSPSPDALIKDAFQTYIIGNNKHYSSDQLNFILTLQTVFLKKKHIEYSTLWLPPFTNFGTTAPFPMFTQEELNSFIDICKGVEKDIFM	not failed
MKVALGGTFEPLHEGHKKLIDVAIKLGGRDITIGVTSDRMARARIRSVLPFAIRAENVKRYVMRKYGFEPEIVKITNPYGKTLDVDFEYLVVSPETYEMALKINQKREELGKRKITIVKVDWMMAEDGKPISSTRIKRGEIDRYGG	failed
MSKHQRPRILITGAAGALAQQVIRRLRESCDLVAVDFREQVYLGDDIPSYCIDFNKRVFEDLFRRYEFDGVIHLGRILSSQLTRMRRYNANVLGTQKLLDLSHKYGIRRVIVLSTYHVYGAVAYNPALIDESAPLKSAGLSADLVDSVELENLANIYLWRYPELNITILRPCNIVGPGVRNTMSTLLSSERAPVLAGFSPMMQFIHIDDMADAIVAAWAKPVKGVFNVAPQDWVAYQHALKLCGCKTIPIPSIPPSVPKAIARVLNLRSFPPYLMAFFKYPVVIDGRAFAREFGFEPKRPLKEIFRYYRDNKKPV	failed
MTTEPAQALSPLGVLPPAGPTCVHLPLNVTPQELARYAVGLANARGGTVMVGVDVVGQEHAERDAGELHPLMITHAIFELSGGRLTVNVQHHRVPGGARVLTVFVPQAPYVLAAPDGAVMAWDGAHLVPVLPGEGEPVADRDYTAVVPPDASLADLDPAEVARLRLLGRRIDAANLPDLDFLQELGLLVPSGGALRPTLAAILLAGTDAALRAHLPQAEVCYFHHQANDVEFQFREDLRRPIPSLLLRLSELIQARNRFTPVQVGLFRVEVWDHDESVYREALLNALTHRDYTLRDVVHVHHYPDRLEIMNPGGFPGGITPGNILRHQPKRRNPLLAGVLARLGLVEQAGVGVDKMFSLMLRHGKEPPEYVNYPDAVTLTLHGSAFDSDFVRFVARKQEELPQLSLDMLIVLSLLSREGEAPRAQLARALQLPEDRTPRLLRQMEDLALITRAGIGRGIAYHLAPDVAAALGQEKQRGLSALPGLPEPAERPTLLAPPAAVAPAPAPAAPRRVSEPAPTSHAGPSPSETRAIALALARERGRVRNADLREVCGLTNQQAWRALRSLVNAGLLRRLGSGTRDAYYELGEGAGRREEG	failed
MITKFPPQWQEKLDQVAFTHLTPIQEQAFQPIVDGKNFLGISPTGTGKTLAYVFPNLLALTPKKSQQLLILAPNTELAGQIFEVTKDWAQPLGLTAQLFISGTSQKRQIERLKKGPEILIGTPGRIFELIKLKKIKMMSVNTIVLDEYDELLGDSQYDFVQKISHYVPRDHQMVYMSATNKVDQTSLAPNTFCIDLSEQTNDAIQHFYLMVDKRERTDLLRKFTNIPHFRALVFFNSLSDLGATEERLQYNGAAAVSLASDINVKFRKTILEKFKSHQLSLLLATDLVARGIDIDNLDYVIHFDVARDKENYTHRAGRTGRMGKSGIVITFVSHPEDLKKLKKFAKVSEISLKNQQLHFIN	failed
ETSDQRKAEEHIEKEAKYLASLLDAGNLNNQANEKIIKDAGGALDVSASVIDTDGKVLYGSNGRSADSQKVQALVSGHEGILSTTDNKLYYGLSLRSEGEKTGYVLLSASEKSDGLKGE	not failed
MTDQRWLIDKSALVRLTDSPDMEIWSNRIERGLVHITGVTRLEVGFSAECGEIARREFREPPLSAMPVEYLTPRIEDRALEVQTLLADRGHHRGPSIPDLLIAATAELSGLTVLHVDKDFDAIAALTGQKTERLTHRPPSA	not failed
VFHPVECSYCHSESMMGFRYRCQQCHNYQLCQDCFWRGHAGGSHSNQHQMKEYTSW	not failed
MTNDDSLKTYRAKRDFSVTPEPSGVASGKTAIKSTAKVLSFVVQKHWATRLHYDFRLELEGTMKSWAVPKGPSFDPNDKRMAVHVEDHPISYNSFEGEIPSGQYGAGKVIIWDKGTWIPLEDPHKGYRDGKLKFELRGLKLKGHWALVRMRKEENKKQEPWLLIKEKDEYVRSSREYSVVDEMPDSVAELDVPDVPQPSKASATSGSSSPKSSSIFRKGTKTTLPDNARKAELPRTLTPELATLVDEPPVDPEEWIYEIKFDGYRMLSRIEGGEVRLITRNGNDWSHKLPHLIKALGKLKLKSSWLDGEIAVLDENGIPDFQSLQNAFDSAHTESIIYYLFDVPFYEGYDLRDASLVERRALLQKLFEAHAPDEIRFSDVFDVSPAEILDSACRLGLEGVIGKRKTSVYVSRRSQDWIKLKCKNRQEFVIGGYTDPKGTRKGIGSLLLGYYDEDRKLRYAGNVGAGFSDKTLEDLRARLDRIALTDSPFVKANGLDKNAHWVEPRLIAEVSFGEWTRGGHIRHSVFHGLRSDKKADVIVREKPVHPAAKSAPASAIPKSLKVTNPDRVIDPSTGFTKVDLIRYYALVAPLMLPHLARRPVSLVRAPEGVSGELFFQKHWEKENMPGIEQLDPSLDPDHPPLLEVSTAEGLLSAVQMNVIEFHTWNATKNVIGKPDRIAFDLDPGSGVEWALIQESAQLVNVFLRELGLKSFLKTSGGKGLHIVVPIRRLRDWDTVKGFSQAIVQHLAKTIPTRFTAKSGPRNRVGKIFIDYLRNGFGATTVSAWSVRARPGLGVSVPLAWEELSSLKSSTRWSASNIHERLDKGNDPWADYAETNQSIVPAMKKLGFTPSSKA	failed
MGYQLSATLKGHDQDVRDVVAVDDSKVASVSRDGTVRLWSKDDQWLGTVVYTGQGFLNSVCYDSEKELLLFGGKDTMINGVPLFATSGEDPLYTLIGHQGNVCSLSFQDGVVISGSWDKTAKVWKEGSLVYNLQAHNASVWDAKVVSFSENKFLTASADKTIKLWQNDKVIKTFSGIHNDVVRHLAVVDDGHFISCSNDGLIKLVDMHTGDVLRTYEGHESFVYCIKLLPNGDIVSCGEDRTVRIWSKENGSLKQVITLPAISIWSVDCMSNGDIIVGSSDNLVRIFSQEKSRWASEDEINELSTQVEKSTISSKTIEFDESKLSPYEILQSPGRKEGQIVVVKSPQGTIEAHQFSNSSWKKVGDVVGAGATGNDKKIEFEGKTYDYVFDVDIEDGKPPLKLPINVSDNPYTAADNFLARYELPMSYRDQVVQFILKNTNGISLDQPNDNASSSAVSPSKTSVMKVLPVKQYLIMENYNPDTIFNGIVKINSNEKTFDDEILAQIGGALHDIDESWELLLSFANTIRSNWEIKTPAYDIVRLIVKKLPYSSDIKDYIEEGLGNKNITLTMLTVRILVNCFNNENWGVKLLESNQVYKSIFETIDTEFSQASAKQSQNLAIAVSTLIFNYSALVTKGNSDLELLPIVADAINTKYGPLEEYQECEEAAYRLTVAYGNLATVEPTLRQFANSVTWLANIKRSYGNVPRFKDIFDDLS	failed
MEPIMRNPEDALLDSWHQNAQAWIDAVRHGAIESRRQVTDQAILLAILGRQPERVLDLGCGEGWLLRALADRGIEAVGVDGDRTLVDAARAAGAGEVHLASYAQLAEAKVPVGKDYDLICANFALLHQDIIELLSAMRTLLVPGGALVIQTLHPWSVADGDYQDGWREESFAGFAGDWQPMPWYFRTLASWLNALDMAGLRLVSLQEPQHPQSAVPQSLLMVAERH	failed
MKVGIIGLGFRLGYLGYVFKAIDSSFDIVGYVDPDPAGLPGLTEKGISAGKAYGSPEELLASEKLDLLMIGSPNHMHLGHIRLGLQAGLKVFCEKPIVTTIAESIELAHLMAKFGHERLMVGLVLRYSPLYKDLRAIQAEGKLGQIVSIEASEHIEPYHGAFFMRDWRRYERYSGSFMLEKCCHDLDLYNGVVGARPERVASFGGRKSFIPANDPAREGINDLELFHRKPSGWMGSDKVFDSDADIIDYQVAIVEYENGVGMNFHTNLNVPDQFRRFAIMGSRGMAEGDFVRGYLDVHEQLTGNKIVENKYAATELSQHYGADEQMASDLLESVRTGLELPVSTLNALEAGILALAMDEARMKKTVVDLRPIWDRFDEALHARAA	failed
EGDPENGEKLQITIRRGKDGFGFTICCDSPVRVQAVDSGGPAERAGLQQLDTVLQLNERPVEHWKCVELAHEIRSCPSEIILLVWRV	not failed
MVGLVACSKQSANQQISYRQTAEATLDKGMDNQPEAPYWFPKQLLKWQLSKDKAAKYNTASVPLAKRIDKWQLPTVNKTQDPKMKVVALSIMNSSTSGNAPRGINTFDANVFSNWQYIDQLVYWGGSAGEGLIVPPTADVIDSAHKNGVPVLGTVFFPQVVSGGKLKWLNDFLKQDADGHFPMADKLVAVAKAYGFDGWFINQETDPEVKSFDSASTGKTATSSTSNGLSKKHAQLMQQLIKEYKQKAGSKLDLMWYDSMTKDGKMDWQNALTKENQSYLVDANMKPVADSMFLNFWWTKKRLASQELLKKSHERAEKLGISPYNLFAGIDVQADGTATPVRWNLFANKQHVPYTSLGLYAPDWTHASSDTVDEFQAKEGALWVNDQNDPSRLEHHHHHH	not failed
